# Measurements: the DeepSol protein solubility set
# Experiment: soluble on expression in E. coli; label from the status in PepcDB or PDB records
row,Sequence,soluble on expression in E. coli
1,VEAHPSLTLFSQLRIEHEDMAIAEDDWAWLRHKGHLRLGAALDETSPFNVRLDDENYEGITADVATLVGQLLGMRIKVVSFDTHADAVAALAAGKIDLLGSHYSSAGDSSLVLSQPYARDRLAVFKRMGEKRNSPEDLAGLSVAVAREHVGELRQRFPRARFVVFGSHDEAVAAVAFGHTDLYLDDVLSAYHRINRSYYGYVRFERFADARLEGGYGFLLRRGDTNLLRVVNSAIGAINQDRLESIARRWVGSGSLPTGQRIALTPQESRWIARHPVVRLVINDDLAPLAFFNSDETFSGIASDLLDMISRRTGLHFQVTPRSGGFPEQIGVLARKEADLAIMSRSSKREEMLRFTRSFLSTSYVLVTRADDKGRAEIPGSLDGKRIAIPAGHVGMQQVRERYPQASMVEVGVALDAMNLVYEGRADAAVVPLVTARYYIVRLFRERLAIADLVPIGAATAHFAVRRGDAELQSILDKALLSISPDDLSDIVNRW,not soluble
2,VEQSANAFLLVNCNGVVEYVNPSFTAITQYSSEEVSGNKLSELPALENLNQLLLEANSSLTSSNSWQGEFKSRRKNLEPYWGQLSISKVYGDNRELTHYIGIYEDIT,not soluble
3,VFLDFEKGIEEFEAKIEQLRFAQDNSALDISAEIARLQTKSLGLTKSVYAKLTPWQISQVARHPQRPYTLDYVQHLFTDFEELHGDRNFADDQAIVGGLARFNGQTVMIIGHQKGRDTKEKIHRNFGMPKPEGYRKALRLMRLAEKFSI,not soluble
4,VGDLYYHVGVNATFIKNELTEVNGSRDEWQGFNPHAKGTITYAKTGHSIGYFNLIKTDGVFQSQQEIDAYVDKNGNKIQPNAQPGDLRFVDYNGDGKIDNNDRQDVGSAFPKVNLGVSLGAEWKGLDLNMFFDGNFGNKIYNAQYYSTVYNESTGNQYAERMNSWTENNHSDIPRCLFGTSDPNGTNWGYTDRWLENGSFLRLKTLELGYTLPKVWVSKAGLQNVRVYTAMENLFTITDYKGYTPDLGMVDADGAGTSGGSGVMTRGCDDGRYPMARTITFGLQVNF,not soluble
5,VKIRLHTLLAVLTAAPLLLAAAGCGSKPPSGSPETGAGAGTVATTPASSPVTLAETGSTLLYPLFNLWGPAFHERYPNVTITAQGTGSGAGIAQAAAGTVNIGASDAYLSEGDMAAHKGLMNIALAISAQQVNYNLPGVSEHLKLNGKVLAAMYQGTIKTWDDPQIAALNPGVNLPGTAVVPLHRSDGSGDTFLFTQYLSKQDPEGWGKSPGFGTTVDFPAVPGALGENGNGGMVTGCAETPGCVAYIGISFLDQASQRGLGEAQLGNSSGNFLLPDAQSIQAAAAGFASKTPANQAISMIDGPAPDGYPIINYEYAIVNNRQKDAATAQTLQAFLHWAITDGNKASFLDQVHFQPLPPAVVKLSDALIATISS,soluble
6,VKPKGAFKAFTGEGQKLGSTAPQVLNTSSPAQQAENEAKASSSILINEAEPTTNIQIRLADGGRLVQKFNHSHRISDIRLFIVDARPAMAATSFVLMTTFPNKELADENQTLKEANLLNAVIVQRLT,soluble
7,VPGVWSPPCPTTPRVGVVAALVAATLTGCGSGDSTVAKTPEATPSLSTAHPAPPSSEPSPPSATAAPPSNHSAAPVDPCAVNLASPTIAKVVSELPRDPRSEQPWNPEPLAGNYNECAQLSAVVIKANTNAGNPTTRAVMFHLGKYIPQGVPDTYGFTGIDTSQCTGDTVALTYASGIGLNNVVKFRWNGGGVELIGNTTGG,soluble
8,VPRGSAKGDGVTDDTAALTSALNDTPVGQKINGNGKTYKVTSLPDISRFINTRFVYERIPGQPLYYASEEFVQGELFKITDTPYYNAWPQDKAFVYENVIYAPYMGSDRAGVSRLHVSWVKSGDDGQTWSTPEWLTDLHPDYPTVNYHCMSMGVCRNRLFAMIETRTLAKNALTNCALWDRPMSRSLHLTGGITKAANQRYATIHVPDHGLFVGDFVNFSNSAVTGVSGDMTVATVIDKDNFTVLTPNQQTSDLNNAGKNWHMGTSFHKSPWRKTDLGLIPSVTEVHSFATIDNNGFAMGYHQGDVAPREVGLFYFPDAFNSPSNYVRRQIPSEYEPDASEPCIKYYDGVLYLITRGTRGDRLGSSLHRSRDIGQTWESLRFPHNVHHTTLPFAKVGDDLIMFGSERAENEWEAGAPDDRYKASYPRTFYARLNVNNWNADDIEWVNITDQIYQGGIVNSGVGVGSVVVKDNYIYYMFGGEDHFNPWTYGDNSAKDPFKSDGHPSDLYCYKMKIGPDNRVSRDFRYGAVPNRAVPVFFDTNGVRTVPAPMEFTGDLGLGHVTIRASTSSNIRSEVLMEGEYGFIGKSIPTDNPAGQRIIFCGGEGTSSTTGAQITLYGANNTDSRRIVYNGDEHLFQSADVKPYNDNVTALGGPSNRFTTAYLGSNPIVT,soluble
9,VQRCVIIQKDQHGFGFTVSGDRIVLVQSVRPGGAAMKAGVKEGDRIIKVNGTMVTNSSHLEVVKLIKSGAYVALTLLGSS,soluble
10,VRDHLPPGLPPDPFADDPCDPSAALEAVEPGQPLDQQERMAVEADLADLAVYEALLAHKGIRGLVVCCDECQQDHYHDWDMLRSNLLQLLIDGTVRPHEPAYDPEPDSYVTWDYCRGYADASLNEAAPDADRFRRR,soluble
11,VRQLDSDGFAALMESIPHAISVHDRERNLVFSNPACAALIGYDTAEFADLEHEQLFHPDDAELWGTMLARVLGTESTSATAHLRIRHREGHWIWVRVAASTFTAGAERLVALVLQDESDTIWGNPTAARQPIR,not soluble
12,VSIDSSRRIIQAIEQNEFHLYCQKIIPAGSNQESSSYYEVLIRMAEEESNLIPPGAFLPFVEKYNLMPRLDSWVVEQVIHYLADQRADPRISFCINLARSTLIDPVFYDRVWKLLNAAGIEPQRICFEIETADVAANLLSAVQFVKKVQQSGCLVSLCSFNHDRGSFDLLKHIQADFLKIDGSLICNILRDAEDLKKVENIGKFARALKIRTIGELVETRNILEKLAKIGIDYAQGFIVGRPLPIEKIEYRADSMDDL,not soluble
13,VSMDELDPHVARALTLAARFQSALDGTLNQMNNGSFRATDEAETVEVTINGHQWLTGLRIEDGLLKKLGAEAVAQRVNEALHNAQAAASAYNDAAGEQLTAALSAMSRAMNEGMA,soluble
14,VTLLVKSPNQRHRDLELSGDRGWSVGHLKAHLSRVYPERPRPEDQRLIYSGKLLLDHQCLRDLLPKQEKRHVLHLVCNVK,soluble
15,VVCREASHAGSWYTASGPQLNAQLEGWLSQVQSTKRPARAIIAPHAGYTYCGSCAAHAYKQVDPSITRRIFILGPSHHVPLSRCALSSVDIYRTPLYDLRIDQKIYGELWKTGMFERMSLQTDEDEHSIEMHLPYTAKAMESHKDEFTIIPVLVGALSESKEQEFGKLFSKYLADPSNLFVVSSDFCHWGQRFRYSYYDESQGEIYRSIEHLDKMGMSIIEQLDPVSFSNYLKKYHNTICGRHPIGVLLNAITELQKNGMNMSFSFLNYAQSSQCRNWQDSSVSYAAGALTVH,soluble
16,VVLSTAFSQMFGIDYPIVSAPMDLIAGGELAAAVSGAGGLGLIGGGYGDRDWLARQFDLAAGAPVGCGFITWSLARQPQLLDLALQYEPVAVMLSFGDPAVFADAIKSAGTRLVCQIQNRTQAERALQVGADVLVAQGTEAGGHGHGPRSTLTLVPEIVDLVTARGTDIPVIAAGGIADGRGLAAALMLGAAGVLVGTRFYATVEALSTPQARDPLLAATGDDMCRTTIYDQLRRYPWPQGHTMSVLSNALTDQFEDTELDILHREEAMARYWRAVAARDYSIANVTAGQAAGLVNAVLPAADVITGMAQQAARTLTAMRAV,not soluble
17,WSYEHLHLTNRIKLLYAPTFRDNELGMAKLHLDIAEMKQALGNEYQLILKLHPSISNDLEKLDDDFVIYVDKETPIETLLPVVDILITDYSSIPFEFALLQKPMIFFTYDLTEYNNARGLSDGFLETIPGPHVFTTTELIEVIQNNTFDLEKVRLFAEKWNKYSDGFSSERFVSFLKE,not soluble
18,YALTEGEDYLVLDKPIPQEQPGKIEVLEFFGYFCVHCHHFDPLLLKLGKALPSDTYLRTEHVVWRPEMLGLARMAAAVKLSGLKYQANSAVFKAVYEQKIRLENRAVAGKWALSQKGFDGKKLMRAYDSPEAAAVALKMQKLTEQYGIDSTPTVIVGGKYRVIFNNGFDGGVHTIKELVAK,not soluble
19,YANRESLIKRYTLKVLEQIAWLPEAQSLDEAKVQEALEDASQTIDSYLGGRYVLPLKTVPAVLERHCCYIARYFLEKNRATDQARQDYEDTIRFLEKVASGAISLGLSDDDETVESENGAMMESAGSVWGRNT,not soluble
